{"source": "paper PMC7904446", "about": "(Cell Host & Microbe, 2021)", "binders": {"B1": {"name": "ZDY28 human monoclonal antibody, IgG1 (antibody, V domains shown)", "VH": "EVQLVQSGGGVVQPGRSLRLSCAASGFTFSSYGMHWVRQAPGKGLEWVAVISYDGSNKYYADSVKGRFTISRDNSKNTLYLQMNSLRAEDTAVYYCASRSTVVPAAIFAFDIWGQGTMVTVSS", "VL": "not shown"}, "B2": {"name": "ZDY95 human monoclonal antibody, IgG1 (antibody, V domains shown)", "VH": "B1 VH", "VL": "not shown"}, "B3": {"name": "ZDY49 human monoclonal antibody, IgG1 (antibody, V domains shown)", "VH": "B1 VH with Q6E", "VL": "not shown"}, "B4": {"name": "ZDY20 human monoclonal antibody, IgG1 (antibody, V domains shown)", "VH": "EVQLVETGGGLIQPGGSLRLSCAASGITVSSNYMSWVRQAPGKGLEWVSVIYSGGSTYYADSVKGRFTISRDNSKNTLYLQMNSLRAEDTAVYYCAREGLGDGYNAIAGLGFDLWGRGTLVTVSS", "VL": "DIVMTQSPSSLSASVGDSVTITCQASQDINNYLNWYQQKPGRAPELLINDASNLEAGVPSRFSGSGSGTDFTLTISSLQTEDFATYYCQQYGSLPYTFGQGTKLDIR"}}, "note": "Substitutions are numbered along the chain they refer to.", "data": [{"biological_target": "T1, SARS-CoV-2 spike trimer protein (SARS-CoV-2, Wuhan-Hu-1 reference, UniProt P0DTC2)", "assay": "SPR", "units": {"Kd": "nM"}, "values": [{"binder": "B1", "Kd": 10.2}, {"binder": "B2", "Kd": 15}, {"binder": "B3", "Kd": 24.4}, {"binder": "B4", "Kd": 8.8}]}, {"biological_target": "T1, SARS-CoV-2 spike trimer protein", "assay": "cell-based or functional assay", "units": {"pseudovirus neutralisation in 293T-ACE2 cells, IC90; blocks S binding to ACE2": "µg/mL", "neutralisation of live SARS-CoV-2, IC50; blocks S binding to ACE2": "µg/mL"}, "values": [{"binder": "B1", "pseudovirus neutralisation in 293T-ACE2 cells, IC90; blocks S binding to ACE2": 7.47}, {"binder": "B2", "pseudovirus neutralisation in 293T-ACE2 cells, IC90; blocks S binding to ACE2": 13.3}, {"binder": "B3", "pseudovirus neutralisation in 293T-ACE2 cells, IC90; blocks S binding to ACE2": 17.1}, {"binder": "B4", "neutralisation of live SARS-CoV-2, IC50; blocks S binding to ACE2": 0.35, "pseudovirus neutralisation in 293T-ACE2 cells, IC90; blocks S binding to ACE2": 1.24}]}]}
